# Data as given in US20100278865A1.
# Target: E2 protein of J6/JFH-1 (3×FLAG) virus particles (hepatitis C virus, J6CF strain (genotype 2a))
# Test: batch capture of virus particles on M2 antibody agarose, FLAG peptide elution, HCV Core ELISA of eluates
substance,measurement,value
"anti-FLAG monoclonal antibody (M2 antibody, Sigma)",purification efficiency,5%
